Molecular target: T1, endogenous p97 purified from rat liver cytosol, biotinylated (rat (endogenous in rat liver), UniProt P46462 1-806, biotinylated using EZ-Link Sulfo-NHS-LC-biotin (sites not given))
T1 construct: p97 ATPase (VCP), endogenous protein purified from rat liver cytosol; Held on streptavidin beads through the biotin; also called p97ATPase; VCP; source: purified from rat liver cytosol
Experiment: pull-down; endogenous rat liver p97, biotinylated, immobilised on streptavidin beads; His-tagged VCIP135 or its fragments or mutants in solution; 1 mM AMP-PNP (Figs 1A, 5C, 5D: the indicated nucleotide, 1 mM); 20 mM HEPES, 100 mM KCl, 1 mM MgCl2, 1 mM DTT, 0.5% CHAPS, 10% glycerol, pH 7.4; Western blot with antibodies to p97 and His-tag
Details: both partners purified

T1 sequence (P46462 whole entry): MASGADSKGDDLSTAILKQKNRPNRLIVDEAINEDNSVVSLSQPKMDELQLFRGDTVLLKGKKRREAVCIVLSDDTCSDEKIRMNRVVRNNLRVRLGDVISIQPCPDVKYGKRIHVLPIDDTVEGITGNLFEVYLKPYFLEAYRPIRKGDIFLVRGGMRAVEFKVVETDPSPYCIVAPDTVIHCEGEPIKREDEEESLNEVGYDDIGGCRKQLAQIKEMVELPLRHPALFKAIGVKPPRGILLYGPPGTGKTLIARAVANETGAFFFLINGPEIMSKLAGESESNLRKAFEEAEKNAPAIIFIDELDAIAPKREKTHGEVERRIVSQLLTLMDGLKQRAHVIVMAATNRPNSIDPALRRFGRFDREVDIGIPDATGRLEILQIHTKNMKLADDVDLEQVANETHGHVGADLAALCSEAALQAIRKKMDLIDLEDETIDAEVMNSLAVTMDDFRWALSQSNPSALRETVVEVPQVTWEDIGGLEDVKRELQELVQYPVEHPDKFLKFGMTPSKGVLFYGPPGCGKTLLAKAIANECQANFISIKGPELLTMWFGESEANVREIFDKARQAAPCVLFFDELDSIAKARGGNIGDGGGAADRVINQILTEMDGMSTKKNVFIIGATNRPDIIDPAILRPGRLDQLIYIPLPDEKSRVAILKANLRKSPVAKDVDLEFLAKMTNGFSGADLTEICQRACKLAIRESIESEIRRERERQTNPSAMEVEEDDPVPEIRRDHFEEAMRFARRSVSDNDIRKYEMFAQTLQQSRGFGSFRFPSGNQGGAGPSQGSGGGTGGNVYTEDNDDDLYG

Row | binding result | Binder
1 | binds | His-tagged VCIP135(1-743) (domain or fragment, rat, UniProt Q8CF97 1-743, looked up, also called N-terminal half of VCIP135) MSQPPPPPPLPPPPPPPEAPQTSSSLAAAATPGGLSKRRDRRILSGSCPDPKCQARLFFPASGSVSIECTECGQRHEQQQLLGVEEVTDPDVVLHNLLRNALLGVTGAPKKNTELVKVMGLSNYHCKLLSPILARYGMDKQTGRAKLLRDMNQGELFDCALLGDRAFLIEPEHVNTVGYGKDRSGSLLYLHDTLEDIKRANKSQECLIPVHVDGDGHCLVHAVSRALVGRELFWHALRENLKQHFQQHLARYQALFHDFIDAAEWEDIINECDPLFVPPEGVPLGLRNIHIFGLANVLHRPIILLDSLSGMRSSGDYSATFLPGLIPAEKCTGRDGHLNKPICIAWSSSGRNHYIPLVGIKGAALPKLPMNLLPKAWGVPQDLIKKYIKLEEDGGCVIGGDRSLQDKYLLRLVAAMEEVFMDKHGIHPSLVADVHQYFYRRTGVIGVQPEEVTAAAKKAVMDNRLHKCLLCGALSELHVPPEWLAPGGKLYNLAKSTHGQLRPDKNYSFPLNNLVCSYDPVKDVLLPDYGLSNLTACNWCHGTSVRRVRGDGSIVYLDGDRTNSRSTGGKCGCGFKHFWEGKEYDNLPEAFPITLEWGGRVVRETVYWFQYESDPSLNSNVYDVAMKLVTKHFPGEFGSEILVQKVVHTILHQTAKKNPDDYTPVNIDGAHAQRIGDVQGQELESQLPTKIILTGQKTKTLHKEELNMSKTERTIQQNITEQASVMQKRKTEKLKQEQKGQPR
2 | binds | His-tagged VCIP135(1-390) (domain or fragment, rat, UniProt Q8CF97 1-390, looked up, VCIP135, rat, residues 1-390) MSQPPPPPPLPPPPPPPEAPQTSSSLAAAATPGGLSKRRDRRILSGSCPDPKCQARLFFPASGSVSIECTECGQRHEQQQLLGVEEVTDPDVVLHNLLRNALLGVTGAPKKNTELVKVMGLSNYHCKLLSPILARYGMDKQTGRAKLLRDMNQGELFDCALLGDRAFLIEPEHVNTVGYGKDRSGSLLYLHDTLEDIKRANKSQECLIPVHVDGDGHCLVHAVSRALVGRELFWHALRENLKQHFQQHLARYQALFHDFIDAAEWEDIINECDPLFVPPEGVPLGLRNIHIFGLANVLHRPIILLDSLSGMRSSGDYSATFLPGLIPAEKCTGRDGHLNKPICIAWSSSGRNHYIPLVGIKGAALPKLPMNLLPKAWGVPQDLIKKYIKL
3 | binds | His-tagged VCIP135(744-1221) (domain or fragment, rat, UniProt Q8CF97 744-1221, looked up, also called C-terminal half of VCIP135) TVSPSTIRDGPSSAPATPTKAPYSPTTSKEKKIRITTNDGRQSMVTLKSSTTFFELQESIAREFNIPPYLQCIRYGFPPKELMPPQAGMEKEPVPLQHGDRITIEILKGKAEGGPSTAAHSAHTVRQEEIAVTGKLSSKELQEQADKEMYSLCLLATLMGEDVWSYAKGLPHMFQQGGVFYNIMKKTMGMADGKHCTFPHLPGKTFVYNASEDRLELCVDAAGHFPIGPDVEDLVKEAVSQVRAEATTRSRESSPSHGLLKLGSGGVVKKKSEQLHNVTAFQGKGHSLGTASSNPHMDPRARETLAVRKHNTGTDFSNSSIKTEPPVFTAASSNSELIRIAPGVVTMRDGRQIDPDVVEAQRKKLQEMVSSIQASMDKHLRDQSTEQTPSDLSQRKVEAVSSSVRPGNLQTGLPESFSLTGGTENLNTETTDSRVADVLGAAFATRSKAQKENSMEEPEEMDSQDAETTNTTEPMDHS
4 | binds | His-tagged VCIP135(903-1053) (domain or fragment, rat, UniProt Q8CF97 903-1053, looked up) GEDVWSYAKGLPHMFQQGGVFYNIMKKTMGMADGKHCTFPHLPGKTFVYNASEDRLELCVDAAGHFPIGPDVEDLVKEAVSQVRAEATTRSRESSPSHGLLKLGSGGVVKKKSEQLHNVTAFQGKGHSLGTASSNPHMDPRARETLAVRKH

From publication PMC10805704, “VCIP135 associates with both the N- and C-terminal regions of p97 ATPase” (The Journal of Biological Chemistry, 2023)
